We go through 5 proteins from PMC6677139.

Numbering of substitutions follows the chain as printed. Names may count otherwise.

What all share (test): purified protein
Substrate in data set [1]: Cn1c(N)nc2nc[nH]c2c1=O
It is filed as biochemical, Escherichia coli. The settings on record: 20 mM HEPES pH 7.5, 100 mM NaCl, 37 °C, zinc enzyme.

Substrate in data set [2]: Nc1nc(N)nc(O)n1
It is filed as biochemical, Escherichia coli. To be noted: 20 mM HEPES pH 7.5, 100 mM NaCl, 37 °C, zinc enzyme.

Substrate in data set [3]: Nc1nc2nn[nH]c2c(=O)[nH]1
In kind it is biochemical, Escherichia coli. The settings on record: 20 mM HEPES pH 7.5, 100 mM NaCl, 37 °C, zinc enzyme.

Substrate in data set [4]: Nc1nc2nc[nH]c2c(=O)[nH]1
It is filed as biochemical, Escherichia coli. To be noted: 20 mM HEPES pH 7.5, 100 mM NaCl, 37 °C.

Substrate in data set [5]: Nc1nc2nc[nH]c2c(=O)[nH]1
It is filed as biochemical, Saccharomyces cerevisiae. The settings on record: 20 mM HEPES pH 7.5, 100 mM NaCl, 37 °C, zinc enzyme.

B1: EcGuaD (Escherichia coli K-12) (protein)
chain: MMSGEHTLKAVRGSFIDVTRTIDNPEEIASALRFIEDGLLLIKQGKVEWFGEWENGKHQIPDTIRVRDYRGKLIVPGFVDTHIHYPQSEMVGAYGEQLLEWLNKHTFPTERRYEDLEYAREMSAFFIKQLLRNGTTTALVFGTVHPQSVDALFEAASHINMRMIAGKVMMDRNAPDYLLDTAESSYHQSKELIERWHKNGRLLYAITPRFAPTSSPEQMAMAQRLKEEYPDTWVHTHLCENKDEIAWVKSLYPDHDGYLDVYHQYGLTGKNCVFAHCVHLEEKEWDRLSETKSSIAFCPTSNLYLGSGLFNLKKAWQKKVKVGMGTDIGAGTTFNMLQTLNEAYKVLQLQGYRLSAYEAFYLATLGGAKSLGLDDLIGNFLPGKEADFVVMEPTATPLQQLRYDNSVSLVDKLFVMMTLGDDRSIYRTYVDGRLVYERN
In the case of B1, the Km in “purified protein [1]” came to 930 ± 260 µM; in the data set “purified protein [2]”, 1200 ± 200 µM; in the data set “purified protein [3]”, 1000 ± 300 µM; in “purified protein [4]” (zinc enzyme), 210 ± 40 µM.

B2: EcGuaD (Escherichia coli K-12; W101H) (protein)
chain: B1 chain with W101H
In the case of B2, in “purified protein [4]”, the Michaelis constant (Km) was determined as 80 ± 10 µM.

B3: EcGuaD (Escherichia coli K-12; F210A) (protein)
chain: B1 chain with F210A
Turning to B3, the Michaelis-Menten constant (Km) in the data set “purified protein [4]” is 210 ± 60 µM.

B4: EcGuaD (Escherichia coli K-12; A386S) (protein)
chain: B1 chain with A386S
B4: the Km in “purified protein [4]” was found to be 140 ± 30 µM.

B5: Gud1 (Saccharomyces cerevisiae S288C) (protein)
chain: MTKSDLLFDKFNDKHGKFLVFFGTFVDTPKLGELRIREKTSVGVLNGIIRFVNRNSLDPVKDCLDHDSSLSPEDVTVVDIIGKDKTRNNSFYFPGFVDTHNHVSQYPNVGVFGNSTLLDWLEKYTFPIEAALANENIAREVYNKVISKTLSHGTTTVAYYNTIDLKSTKLLAQLSSLLGQRVLVGKVCMDTNGPEYYIEDTKTSFESTVKVVKYIRETICDPLVNPIVTPRFAPSCSRELMQQLSKLVKDENIHVQTHLSENKEEIQWVQDLFPECESYTDVYDKYGLLTEKTVLAHCIHLTDAEARVIKQRRCGISHCPISNSSLTSGECRVRWLLDQGIKVGLGTDVSAGHSCSILTTGRQAFAVSRHLAMRETDHAKLSVSECLFLATMGGAQVLRMDETLGTFDVGKQFDAQMIDTNAPGSNVDMFHWQLKEKDQMQEQEQEQGQDPYKNPPLLTNEDIIAKWFFNGDDRNTTKVWVAGQQVYQI
On to B5, for which the Michaelis constant (Km) in “purified protein [5]” is 61 ± 8 µM.
